For orientation: Km means the substrate concentration at which the rate is half of its maximum.

Starred links: 1 amine or outer side, 2 acyl side, 3 side chain; linkers in the order of their positions; H or OH if unused. Non-standard residues stand in square brackets, D forms with d. No end group written: not given here. Tyr(3,5-3H) = [3H]c1cc(C[C@H](N[*:1])C(=O)[*:2])cc([3H])c1O[*:3]

Experimental findings from patent US7070974B1, “Metalloproteases of the neprilysin family” (Universite de Montreal, priority 1999, dated 2006) are described below.

Common to all, as to format: biochemical
Experiment [1] concerns the target T1, sNEP (engineered soluble form of NEP) (Oryctolagus cuniculus, UniProt P08049).
T1 construct: Fusion of a cleavable signal peptide to the ectodomain of neutral endopeptidase; cleavable signal peptide of proopiomelanocortin (replaces cytosolic and transmembrane domains) (N, cleaved yes); made in house; host or cells: LLC-PK1 cells transfected with pRcCMV-sNEP; concentrated culture medium
T1 sequence (P08049 52-750 limits assumed): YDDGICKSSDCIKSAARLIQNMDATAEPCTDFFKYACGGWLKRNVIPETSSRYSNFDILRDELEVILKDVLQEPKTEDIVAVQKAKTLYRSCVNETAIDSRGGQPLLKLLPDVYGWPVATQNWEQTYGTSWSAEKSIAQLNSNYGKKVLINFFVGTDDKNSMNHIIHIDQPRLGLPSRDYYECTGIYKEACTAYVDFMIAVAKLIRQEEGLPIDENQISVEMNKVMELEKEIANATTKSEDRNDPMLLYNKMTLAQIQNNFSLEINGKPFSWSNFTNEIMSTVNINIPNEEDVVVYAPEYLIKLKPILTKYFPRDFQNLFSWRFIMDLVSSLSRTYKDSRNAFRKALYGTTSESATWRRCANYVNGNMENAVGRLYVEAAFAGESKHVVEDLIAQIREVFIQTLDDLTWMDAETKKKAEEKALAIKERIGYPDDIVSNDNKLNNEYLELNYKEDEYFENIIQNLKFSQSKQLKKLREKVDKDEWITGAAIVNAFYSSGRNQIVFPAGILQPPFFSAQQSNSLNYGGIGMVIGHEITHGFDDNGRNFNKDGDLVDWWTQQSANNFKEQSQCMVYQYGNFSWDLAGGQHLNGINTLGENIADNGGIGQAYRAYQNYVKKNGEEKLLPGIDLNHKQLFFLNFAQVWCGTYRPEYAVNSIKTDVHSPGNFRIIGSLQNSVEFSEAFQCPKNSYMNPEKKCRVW
Nature of the experiment: sNEP enzymatic activity assay with (Tyrosyl-[3,5-3H])(D-Ala2)-Leu5-enkephalin as substrate. The following applies: substrate of sNEP; isotope-dilution method.

Another experiment deals with T2, soluble form of NL-3 (Homo sapiens, UniProt O95672).
T2 construct: the ectodomain of NL-3 (from the third cysteine to the end) was spliced to NL-1 amino-terminal domain; mouse NL-1 amino-terminal domain (initiator methionine to the furin site) (N); made in house; host or cells: COS-1 and HEK 293 cells transfected with pRcCMV; spent culture medium
T2 sequence (O95672 83-775 limits assumed): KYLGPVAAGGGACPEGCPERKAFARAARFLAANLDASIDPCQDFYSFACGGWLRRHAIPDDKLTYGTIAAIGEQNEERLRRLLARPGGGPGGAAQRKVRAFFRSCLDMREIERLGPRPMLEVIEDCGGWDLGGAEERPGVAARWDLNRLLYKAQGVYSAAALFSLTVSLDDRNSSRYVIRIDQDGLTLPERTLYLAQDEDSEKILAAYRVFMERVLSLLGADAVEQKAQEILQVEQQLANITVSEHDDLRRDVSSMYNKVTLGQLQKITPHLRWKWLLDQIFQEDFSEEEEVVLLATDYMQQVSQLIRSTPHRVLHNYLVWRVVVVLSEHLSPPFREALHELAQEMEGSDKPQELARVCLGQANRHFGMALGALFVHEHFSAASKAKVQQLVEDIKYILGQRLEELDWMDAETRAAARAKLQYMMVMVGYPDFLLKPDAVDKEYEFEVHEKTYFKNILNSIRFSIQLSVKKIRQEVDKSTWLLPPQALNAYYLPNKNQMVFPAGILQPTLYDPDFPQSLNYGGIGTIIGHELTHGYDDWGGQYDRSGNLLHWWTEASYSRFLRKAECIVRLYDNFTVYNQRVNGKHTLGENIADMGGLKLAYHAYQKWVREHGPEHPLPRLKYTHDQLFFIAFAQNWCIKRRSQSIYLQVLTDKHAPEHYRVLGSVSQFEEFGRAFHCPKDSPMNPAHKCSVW
In words: Soluble NL-3 activity assay with [3H]-Tyr-(D)Ala2-Leu-enkephalin as substrate. The following applies: soluble NL-3 from the NL-1 amino-terminal fusion. How it is done: (§1) Extracts of cellular proteins and culture media were assayed for enzymatic activity. Two tests were performed. The first used [^3H]-Tyr-(D)Ala2-Leu-enkephalin as substrate and was performed according to Lemay et al., (1989). The second used bradykinin as substrate and was performed as described by Raut et al. (1999).
The observation that NL-1 ectodomain was secreted, possibly through cleavage of the transmembrane segment by furin, raised the possibility to promote secretion of exogenous proteins that could be spliced to NL-1 amino-terminal domain (from initiator methionine to the furin site). To test this hypothesis, the ectodomain of NL-3 (from the third cysteine to the end) was spliced to NL-1 amino-terminal domain using a PCR strategy and the recombinant DNA cloned in expression vector pRcCMV. The fusion protein was expressed by transfection of the vector in COS-1 and HEK 293 cells. The culture media of transfected cells was analyzed by immunoblotting using the mouse antiserum against NL-3.

The next experiment deals with T3, NL1 (Mus musculus, UniProt Q9JLI3).
T3 sequence (Q9JLI3 63-765 limits assumed): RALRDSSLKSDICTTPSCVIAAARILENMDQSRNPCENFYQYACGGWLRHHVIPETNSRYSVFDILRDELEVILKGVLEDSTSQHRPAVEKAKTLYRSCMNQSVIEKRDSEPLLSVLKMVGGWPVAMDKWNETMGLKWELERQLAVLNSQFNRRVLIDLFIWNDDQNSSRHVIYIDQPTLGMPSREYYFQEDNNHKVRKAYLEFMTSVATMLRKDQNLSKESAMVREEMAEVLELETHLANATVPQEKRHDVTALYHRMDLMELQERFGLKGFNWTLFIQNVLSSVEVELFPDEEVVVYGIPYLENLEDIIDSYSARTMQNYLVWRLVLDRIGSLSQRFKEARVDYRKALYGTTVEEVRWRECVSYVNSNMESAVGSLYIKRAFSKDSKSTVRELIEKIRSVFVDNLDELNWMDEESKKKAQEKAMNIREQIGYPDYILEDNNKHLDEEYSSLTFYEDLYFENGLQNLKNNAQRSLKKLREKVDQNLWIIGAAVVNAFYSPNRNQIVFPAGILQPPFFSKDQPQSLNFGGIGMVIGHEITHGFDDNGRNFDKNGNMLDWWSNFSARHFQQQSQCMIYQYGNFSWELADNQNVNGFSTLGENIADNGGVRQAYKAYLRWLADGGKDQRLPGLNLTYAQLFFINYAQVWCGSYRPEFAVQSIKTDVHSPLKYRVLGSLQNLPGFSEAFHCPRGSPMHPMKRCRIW
Nature of the experiment: NL-1 enzymatic activity assay with (Tyrosyl-[3,5-3H])(D-Ala2)-Leu5-enkephalin as substrate. Further details: The soluble form of NL-1 was assayed for activity; made in house; host or cells: CHO cells (section 1, pcDNA3-RSV) and HEK 293 cells (section 2, pCDNA3/RSV). How it is done:
as §1
NL1 activity was monitored and compared to sNEP activity using (Tyrosyl-[3,5-^3H])(D-Ala2)-Leu5-enkephalin (50 Ci/mmol) (Research Products International Inc.), as already described (Dion 1995; Devault 1988). Km values were determined by the isotope-dilution method.

Consider “(Tyrosyl-[3,5-^3H])(D-Ala2)-Leu5-enkephalin ([Tyr(3,5-3H)][dA]GFL) [D-Ala2-Leu5-enkephalin]”, for which the Km in experiment [1] amounted to 73 µM; with NL1 (substrate of soluble NL-1, isotope-dilution method) it was 18 µM. Also, the “activity of soluble NL-3 on the substrate” value with soluble form of NL-3 is reported as “No activity”. Besides, the “Km value of NL1 relative to NEP” value in the experiment with NL1 (fold lower for NL1 than NEP) is 4- to 5 fold.
